B1: FI28 variant 1 (antibody, V domains shown)
VH: EVQLVESGGGAVQPGESLKLSCAASGFTFSNYGMHWVRQAPGKGLEWVAVISYDGSNKYYADSVKGRFTISRDNSKDTLYLQMNSLRAEDTALFYCAKERPLRLLRYFDWLSGGANDYWGQGTLVTVSS
VL: DIVMTQSPDSLAVSLGERATINCKSSQSVLYSSNNKNYLAWYQQKPGQPPKLLIDWASTRESGVPDRFSGSGSGTDFTLTISNLQVEDVAVYYCQQYYRSPSFGQGTKLEIK
B2: FI6 variant 2 (antibody, V domains shown)
VH: QVQLVQSGGGVVQPGRSLRLSCVASGFTFSTYAMHWVRQAPGRGLEWVAVISYDGNYKYYADSVKGRFSISRDNSNNTLHLEMNTLRTEDTALYYCAKDSQLRSLLYFEWLSQGYFDPWGQGTLVTVTS
VL: DIQMTQSPDSLAVSLGARATINCKSSQSVTFNYKNYLAWYQQKPGQPPKVLIYWASARESGVPDRFSGSGSGTDFTLTISSLQAEDVAVYYCQQHYRTPPTFGQGTKVEIK

Legend:
[1] = target: HA of H5N1 A/Viet Nam/1203/04 (influenza A virus H5N1 A/Viet Nam/1203/04); assay: ELISA on HA
[2] = target: HA of H9 A/HK/1073/99 (influenza A virus H9N2 A/Hong Kong/1073/99); assay: ELISA on HA
[3] = target: HA of H5N1 A/Viet Nam/1203/04 (influenza A virus H5N1 A/Viet Nam/1203/04); assay: cell-based or functional assay
[4] = target: HA of H10N4 A/mink/Sweded/3900/84 (influenza A virus H10N4 A/mink/Sweded/3900/84); assay: ELISA on recombinant or purified HA
[5] = target: HA of H5N1 A/Viet Nam/1/05 (influenza A virus H5N1 A/Viet Nam/1/05); assay: ELISA on recombinant or purified HA
[6] = target: HA of H5N1 A/Viet Nam/1203/04 (influenza A virus H5N1 A/Viet Nam/1203/04); assay: ELISA on recombinant or purified HA
[7] = target: HA of H6N5 A/shearwater/Australia/1/72 (influenza A virus H6N5 A/shearwater/Australia/1/72); assay: ELISA on recombinant or purified HA
[8] = target: HA of H7N3 A/Canada/444/04 (influenza A virus H7N3 A/Canada/444/04); assay: ELISA on recombinant or purified HA
[9] = target: HA of H8N4 A/Alberta/357/84 (influenza A virus H8N4 A/Alberta/357/84); assay: ELISA on recombinant or purified HA
[10] = target: HA of H9 A/HK/1073/99 (influenza A virus H9N2 A/Hong Kong/1073/99); assay: ELISA on recombinant or purified HA
[11] = target: H5-HA (Table 7) (influenza A virus, H5 subtype, strain not stated); assay: ELISA on baculovirus-derived recombinant HA
[12] = target: H7-HA (Table 7) (influenza A virus, H7 subtype, strain not stated); assay: ELISA on baculovirus-derived recombinant HA

| Binder | Binding to HA by ELISA (% of subtype specific control antibodies) [1] [%] | Binding to HA by ELISA (% of subtype specific control antibodies) [2] [%] | Neutralization of HA-pseudotypes (IC90, µg/ml) [3] [µg/mL] | EC50 [4] [µg/mL] | EC50 [5] [µg/mL] | EC50 [6] [µg/mL] | EC50 [7] [µg/mL] | EC50 [8] [µg/mL] | EC50 [9] [µg/mL] | EC50 [10] [µg/mL] | EC50 [11] [µg/mL] | EC50 [12] [µg/mL] |
| --- | --- | --- | --- | --- | --- | --- | --- | --- | --- | --- | --- | --- |
| B1 | 46.3 | 87.7 | 0.02 |  |  |  |  |  |  |  |  |  |
| B2 | 73.7 | 98.7 | 0.02 | 0.09 | 0.01 | 0.014 | 0.041 | 0.033 | 0.033 | 0.014 | 0.0145 | 0.0314 |
